# Laboratory results reported in publication PMC12386283, “Elucidating the Complex Structural and Molecular Mechanisms Driving P-Glycoprotein-Mediated Transport of Cardiac Glycosides” (International Journal of Molecular Sciences, 2025).
# Columns and labels:
# [1] = system: C[C@H]1O[C@@H](O[C@H]2[C@@H](O)C[C@H](O[C@H]3[C@@H](O)C[C@H](O[C@H]4CC[C@@]5(C)[C@H](CC[C@@H]6[C@@H]5CC[C@]5(C)[C@@H](C7=CC(=O)OC7)CC[C@]65O)C4)O[C@@H]3C)O[C@@H]2C)C[C@H](O)[C@@H]1O; test: purified protein, by the assay type; conditions: other: 37 °C, 3.2 mM ATP, 50 nM proteoliposome, modified Michaelis-Menten fit, pH 7.4
# Method: The Chifflet method is a colorimetric method that measures the amount of free inorganic phosphate (Pi) through the formation of ammonium molybdate and Pi complex, which produces a strong absorbance at 850 nm. The absorbance was measured on a 96-well plate using a CLARIOstar microplate reader (BMG Labtech, Ortenberg, Germany). […] The final concentrations of the proteoliposome and ATP were maintained at 50 nM and 3.2 mM, respectively. Orthovanadate was used as a control and run in parallel to the samples. Finally, the kinetic curves for ATPase activity were fit to a modified Michaelis-Menten equation (Equation (1)) [83]. Igor 6.2 Pro software (Wavemetrics, Tigard, OR, USA) was used for data analysis.(1) V=VmaxS/Km+S+Vbasal where V = Rate of ATP hydrolysis; Vmax = Maximum velocity of ATP hydrolysis; [S] = Substrate concentration; Km = Michaelis–Menten constant; and Vbasal = basal ATPase activity.
# [2] = system: C[C@]12CC[C@H](O)C[C@H]1CC[C@@H]1[C@@H]2C[C@@H](O)[C@]2(C)[C@@H](C3=CC(=O)OC3)CC[C@]12O; test: purified protein, by the assay type; conditions: other: 37 °C, 3.2 mM ATP, 50 nM proteoliposome, modified Michaelis-Menten fit, pH 7.4
# Chain of wild-type mouse Pgp (MDR3) (Mus musculus) (chain, as listed by the source): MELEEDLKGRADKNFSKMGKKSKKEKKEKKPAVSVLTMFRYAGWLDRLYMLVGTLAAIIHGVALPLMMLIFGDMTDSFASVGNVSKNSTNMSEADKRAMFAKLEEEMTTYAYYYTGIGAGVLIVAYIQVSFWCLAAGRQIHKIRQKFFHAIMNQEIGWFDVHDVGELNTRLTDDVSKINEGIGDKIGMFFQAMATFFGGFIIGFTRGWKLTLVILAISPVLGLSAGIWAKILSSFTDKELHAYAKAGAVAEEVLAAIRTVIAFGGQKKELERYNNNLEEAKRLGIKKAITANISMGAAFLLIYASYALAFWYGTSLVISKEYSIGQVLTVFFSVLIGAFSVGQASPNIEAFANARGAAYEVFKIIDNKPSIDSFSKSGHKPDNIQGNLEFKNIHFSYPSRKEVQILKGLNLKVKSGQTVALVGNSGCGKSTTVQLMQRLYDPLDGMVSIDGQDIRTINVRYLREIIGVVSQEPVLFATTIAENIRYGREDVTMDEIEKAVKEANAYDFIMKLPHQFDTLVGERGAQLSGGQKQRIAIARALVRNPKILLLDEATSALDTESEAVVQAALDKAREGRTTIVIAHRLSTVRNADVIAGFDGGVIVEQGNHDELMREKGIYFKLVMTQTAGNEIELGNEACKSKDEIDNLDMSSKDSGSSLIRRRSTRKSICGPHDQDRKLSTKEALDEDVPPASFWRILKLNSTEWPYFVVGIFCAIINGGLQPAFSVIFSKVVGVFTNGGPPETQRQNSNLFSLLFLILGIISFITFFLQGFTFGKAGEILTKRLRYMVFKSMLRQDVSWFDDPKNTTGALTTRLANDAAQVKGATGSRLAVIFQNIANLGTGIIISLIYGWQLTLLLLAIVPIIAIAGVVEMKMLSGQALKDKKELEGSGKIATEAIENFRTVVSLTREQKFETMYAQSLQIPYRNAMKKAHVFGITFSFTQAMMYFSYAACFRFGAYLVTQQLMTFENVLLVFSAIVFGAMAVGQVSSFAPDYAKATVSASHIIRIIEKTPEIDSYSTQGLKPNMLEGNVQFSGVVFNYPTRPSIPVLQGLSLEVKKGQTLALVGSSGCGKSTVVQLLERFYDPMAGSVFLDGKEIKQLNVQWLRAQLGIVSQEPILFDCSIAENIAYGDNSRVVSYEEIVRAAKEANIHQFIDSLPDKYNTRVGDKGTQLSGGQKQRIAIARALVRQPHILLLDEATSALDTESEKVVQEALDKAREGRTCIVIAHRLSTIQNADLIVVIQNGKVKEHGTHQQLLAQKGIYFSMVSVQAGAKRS
substance,measurement,setting,value
wild-type mouse Pgp (MDR3) (Mus musculus),Km,[1],99.19 ± 13.3 µM
same,Km,[2],426.82 ± 173.26 µM
same,Vmax,[2],541.92 ± 111 nmol/min/mg
